In publication PMC3748026, “The Mini-Chromosome Maintenance (Mcm) Complexes Interact with DNA Polymerase α-Primase and Stimulate Its Ability to Synthesize RNA Primers” (PLoS ONE, 2013):

Legend:
[1] = target: T1, mouse Mcm2∼7 complex (Mcm2/3/4/5/6/7), Flag tag on Mcm5 (mouse, UniProt P97310 1-904; P25206 1-812; P49717 1-862; P49718 1-734; P97311 1-821; Q61881 …); experiment: cell-based or functional assay
[2] = target: mouse Mcm4/6/7 complex (His6-Mcm4, Mcm6, Mcm7-Flag) (mouse, UniProt P49717 1-862; P97311 1-821; Q61881 1-719); experiment: cell-based or functional assay
Chain of mouse Mcm4/6/7 complex (His6-Mcm4, Mcm6, Mcm7-Flag) (P49717 whole entry, chain 1 of 3): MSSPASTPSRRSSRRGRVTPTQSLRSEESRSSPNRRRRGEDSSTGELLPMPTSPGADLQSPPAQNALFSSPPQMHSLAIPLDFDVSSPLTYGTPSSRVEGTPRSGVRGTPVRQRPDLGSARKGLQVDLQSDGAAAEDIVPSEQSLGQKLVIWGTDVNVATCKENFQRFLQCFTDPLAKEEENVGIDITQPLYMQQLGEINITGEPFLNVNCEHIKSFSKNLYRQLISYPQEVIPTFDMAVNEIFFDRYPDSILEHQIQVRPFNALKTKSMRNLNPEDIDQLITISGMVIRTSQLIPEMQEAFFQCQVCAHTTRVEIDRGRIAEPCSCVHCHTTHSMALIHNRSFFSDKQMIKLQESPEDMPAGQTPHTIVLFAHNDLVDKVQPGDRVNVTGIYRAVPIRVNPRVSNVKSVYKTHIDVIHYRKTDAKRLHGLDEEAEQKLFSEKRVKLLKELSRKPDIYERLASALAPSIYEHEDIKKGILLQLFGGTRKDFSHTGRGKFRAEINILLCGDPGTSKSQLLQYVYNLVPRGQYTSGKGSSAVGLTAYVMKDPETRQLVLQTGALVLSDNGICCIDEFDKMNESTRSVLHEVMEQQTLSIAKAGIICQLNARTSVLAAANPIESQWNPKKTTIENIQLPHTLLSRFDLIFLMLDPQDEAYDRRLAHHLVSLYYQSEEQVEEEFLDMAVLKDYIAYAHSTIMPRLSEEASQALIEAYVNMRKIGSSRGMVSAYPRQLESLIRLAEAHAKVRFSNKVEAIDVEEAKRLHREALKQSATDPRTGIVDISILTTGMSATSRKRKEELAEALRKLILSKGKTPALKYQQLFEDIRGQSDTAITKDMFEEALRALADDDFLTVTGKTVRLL
Chain of mouse Mcm4/6/7 complex (His6-Mcm4, Mcm6, Mcm7-Flag) (P97311 whole entry, chain 2 of 3): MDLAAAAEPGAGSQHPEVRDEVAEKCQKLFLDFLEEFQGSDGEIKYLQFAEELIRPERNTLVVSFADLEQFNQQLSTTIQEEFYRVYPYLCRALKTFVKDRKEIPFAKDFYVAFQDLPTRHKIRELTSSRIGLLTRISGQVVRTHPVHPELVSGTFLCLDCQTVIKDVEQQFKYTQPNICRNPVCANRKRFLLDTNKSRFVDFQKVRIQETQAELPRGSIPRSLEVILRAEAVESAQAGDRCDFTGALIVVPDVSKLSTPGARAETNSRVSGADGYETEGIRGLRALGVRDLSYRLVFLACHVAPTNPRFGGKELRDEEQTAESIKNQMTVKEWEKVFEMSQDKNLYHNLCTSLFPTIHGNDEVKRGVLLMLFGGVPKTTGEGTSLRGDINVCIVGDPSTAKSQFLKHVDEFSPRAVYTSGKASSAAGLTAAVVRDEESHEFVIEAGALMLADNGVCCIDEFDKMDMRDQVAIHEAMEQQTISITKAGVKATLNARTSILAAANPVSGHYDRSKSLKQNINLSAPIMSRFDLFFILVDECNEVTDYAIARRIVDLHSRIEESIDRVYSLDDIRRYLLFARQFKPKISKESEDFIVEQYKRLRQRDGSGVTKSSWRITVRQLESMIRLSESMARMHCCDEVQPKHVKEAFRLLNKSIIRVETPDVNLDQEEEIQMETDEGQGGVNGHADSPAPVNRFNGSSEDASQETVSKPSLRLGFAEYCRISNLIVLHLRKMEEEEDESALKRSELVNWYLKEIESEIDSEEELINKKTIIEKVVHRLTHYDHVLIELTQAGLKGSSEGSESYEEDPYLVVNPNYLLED
Chain of mouse Mcm4/6/7 complex (His6-Mcm4, Mcm6, Mcm7-Flag) (Q61881 whole entry, chain 3 of 3): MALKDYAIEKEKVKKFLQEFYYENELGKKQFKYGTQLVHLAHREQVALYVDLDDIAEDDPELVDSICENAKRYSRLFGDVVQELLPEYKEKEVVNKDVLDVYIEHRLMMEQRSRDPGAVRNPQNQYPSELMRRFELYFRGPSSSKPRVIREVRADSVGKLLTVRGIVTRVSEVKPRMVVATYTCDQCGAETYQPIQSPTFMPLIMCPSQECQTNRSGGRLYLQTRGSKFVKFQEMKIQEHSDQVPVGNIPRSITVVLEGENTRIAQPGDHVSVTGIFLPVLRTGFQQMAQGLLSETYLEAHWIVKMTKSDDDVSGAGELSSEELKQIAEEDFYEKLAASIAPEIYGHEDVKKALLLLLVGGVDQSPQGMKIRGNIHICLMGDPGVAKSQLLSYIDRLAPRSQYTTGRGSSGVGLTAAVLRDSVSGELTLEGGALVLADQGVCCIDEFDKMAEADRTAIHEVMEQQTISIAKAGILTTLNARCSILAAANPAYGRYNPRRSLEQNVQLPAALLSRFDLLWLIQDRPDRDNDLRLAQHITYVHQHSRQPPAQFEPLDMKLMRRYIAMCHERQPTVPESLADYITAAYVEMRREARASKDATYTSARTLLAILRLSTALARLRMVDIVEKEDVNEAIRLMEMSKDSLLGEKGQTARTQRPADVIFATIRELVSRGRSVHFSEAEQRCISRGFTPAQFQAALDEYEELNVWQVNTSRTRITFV

[3] = target: the molecule itself; experiment: native gel or EMSA; proteins alone or mixed, 25 mM Tris-HCl pH 7.5, 5 mM magnesium acetate, 20 mM 2-mercaptoethanol, 0.01% Triton X-100, 1 mM ATP, 30°C 15 min; 5% native PAGE at 4°C, silver staining; no DNA
[4] = target: T1, mouse Mcm2∼7 complex (Mcm2/3/4/5/6/7), …; experiment: co-IP; purified Mcm2∼7 (Flag tag on Mcm5) held on anti-Flag M2 antibody agarose beads, mixed with purified primase, His-p48 or GINS, with or without an oligonucleotide, GINS or DNase I; 50 mM Tris-HCl pH 7.5, 100 mM sodium acetate, 5 mM magnesium acetate, 1 mM ATP, 10% glycerol, 0.01% Triton X-100; 2 h at 4°C; eluted with 0.1 M glycine pH 2.8 or boiled; silver or SYPRO staining and Western blotting; details: both partners purified
DNA primase p48/p58 = target: T2, DNA primase p48/p58 (human, UniProt P49642;P49643 1-420;1-509); experiment: EMSA; 0.5 mM ATPgS; EMSA: 25 mM Tris-HCl pH 7.5, 40 mM Na acetate, 10 mM Mg acetate, 20 mM 2-mercaptoethanol, 0.25 mg/ml BSA, 0.5 mM ATPgS, 30 C 30 min; pull-down: 25 mM Tris-HCl pH 7.5, 100 mM Na acetate, 10 mM Mg acetate, 0.25 mg/ml casein, 1 mM DTT, 0.01% Triton-X, 0.5 mM ATPgS or 1 mM ATP, 30 C 30 min then beads 4 C 30 min; details: protein: recombinant; tags: His6 on p58; p48 untagged; copies: 1;1; label: 5'-32P; single strand
T2 sequence 1: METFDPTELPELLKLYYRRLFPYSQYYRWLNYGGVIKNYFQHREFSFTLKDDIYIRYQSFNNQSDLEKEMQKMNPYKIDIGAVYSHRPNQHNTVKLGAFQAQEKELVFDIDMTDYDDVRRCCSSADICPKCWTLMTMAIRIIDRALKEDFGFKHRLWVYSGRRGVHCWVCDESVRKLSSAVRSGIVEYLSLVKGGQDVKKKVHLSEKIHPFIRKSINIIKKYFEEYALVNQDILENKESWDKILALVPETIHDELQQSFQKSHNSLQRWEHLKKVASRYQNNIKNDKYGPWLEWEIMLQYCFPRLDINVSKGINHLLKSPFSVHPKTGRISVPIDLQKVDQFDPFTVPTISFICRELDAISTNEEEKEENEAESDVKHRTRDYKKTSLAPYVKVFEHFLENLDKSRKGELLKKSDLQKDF
T2 sequence 2: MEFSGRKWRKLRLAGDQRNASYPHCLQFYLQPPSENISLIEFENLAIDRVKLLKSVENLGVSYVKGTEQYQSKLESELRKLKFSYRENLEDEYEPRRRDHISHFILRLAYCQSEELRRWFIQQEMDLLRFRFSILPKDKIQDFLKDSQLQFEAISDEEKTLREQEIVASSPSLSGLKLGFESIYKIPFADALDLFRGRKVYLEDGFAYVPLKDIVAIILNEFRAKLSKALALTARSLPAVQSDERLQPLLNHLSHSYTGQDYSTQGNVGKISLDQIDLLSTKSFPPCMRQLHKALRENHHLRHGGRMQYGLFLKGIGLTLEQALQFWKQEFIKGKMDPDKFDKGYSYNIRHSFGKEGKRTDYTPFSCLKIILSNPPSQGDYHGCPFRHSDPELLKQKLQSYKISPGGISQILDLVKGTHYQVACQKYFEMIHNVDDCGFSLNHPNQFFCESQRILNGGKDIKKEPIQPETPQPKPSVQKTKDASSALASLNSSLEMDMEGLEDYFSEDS

Mcm4/6/7 complex = Mcm4/6/7 complex (mouse, UniProt P49717;P97311;Q61881 1-862;1-821;1-719); experiment: EMSA; 0.5 mM ATPgS; 2.3 nM Mcm4/6/7; EMSA: 25 mM Tris-HCl pH 7.5, 40 mM Na acetate, 10 mM Mg acetate, 20 mM 2-mercaptoethanol, 0.25 mg/ml BSA, 0.5 mM ATPgS, 30 C 30 min; pull-down: 25 mM Tris-HCl pH 7.5, 100 mM Na acetate, 10 mM Mg acetate, 0.25 mg/ml casein, 1 mM DTT, 0.01% Triton-X, 0.5 mM ATPgS or 1 mM ATP, 30 C 30 min then beads 4 C 30 min; details: protein: recombinant; tags: His6-Mcm4; Mcm7-Flag; chain copies: 2;2;2; label: 5'-32P; single strand
Chain of Mcm4/6/7 complex (P49717 whole entry, chain 1 of 3): as the sequence (P49717 whole entry, chain 1 of 3) above
Chain of Mcm4/6/7 complex (P97311 whole entry, chain 2 of 3): as the sequence (P97311 whole entry, chain 2 of 3) above
Chain of Mcm4/6/7 complex (Q61881 whole entry, chain 3 of 3): as the sequence (Q61881 whole entry, chain 3 of 3) above

[5] = target: Mcm4/6/7 complex;DNA primase p48/p58 (mouse;human, UniProt P49717;P97311;Q61881;P49642;P49643 1-862;1-821;1-719;1-420;1-509, |); experiment: EMSA; 0.5 mM ATPgS; 2.3 nM Mcm4/6/7, 25-100 nM primase; slower band, proportional to primase; EMSA: 25 mM Tris-HCl pH 7.5, 40 mM Na acetate, 10 mM Mg acetate, 20 mM 2-mercaptoethanol, 0.25 mg/ml BSA, 0.5 mM ATPgS, 30 C 30 min; pull-down: 25 mM Tris-HCl pH 7.5, 100 mM Na acetate, 10 mM Mg acetate, 0.25 mg/ml casein, 1 mM DTT, 0.01% Triton-X, 0.5 mM ATPgS or 1 mM ATP, 30 C 30 min then beads 4 C 30 min; details: protein: recombinant;recombinant; tags: His6-Mcm4; Mcm7-Flag;His6 on p58; p48 untagged; chain copies: 2;2;2;1;1; label: 5'-32P; single strand
Chain of Mcm4/6/7 complex;DNA primase p48/p58 (P49717 whole entry, chain 1 of 3): as the sequence (P49717 whole entry, chain 1 of 3) above
Chain of Mcm4/6/7 complex;DNA primase p48/p58 (P97311 whole entry, chain 2 of 3): as the sequence (P97311 whole entry, chain 2 of 3) above
Chain of Mcm4/6/7 complex;DNA primase p48/p58 (Q61881 whole entry, chain 3 of 3): as the sequence (Q61881 whole entry, chain 3 of 3) above

B1: human DNA primase p48/p58 hetero-dimeric complex (His-tagged p58, non-tagged p48) (complex)
chain 1: T2 sequence 1
chain 2: T2 sequence 2
notes: DNA primase small subunit p48, human; DNA primase large subunit p58, human; End of the His tag is read from the printed name His-p58; also called His-p58/p48 complex; His-tagged p48/p58 complex; source: E. coli BL21 (DE3) RIL, purified as previously described [58]; not shown: His tag, N-terminal, kept
[1]
  RNA primer synthesis by p48/p58 primase on poly(dT) with 100-400 ng of Mcm2∼7: ~3 fold
[2]
  RNA primer synthesis by p48/p58 primase on M13 ssDNA with 100-600 ng of Mcm4/6/7: 4 to 7 fold
  RNA primer synthesis by p48/p58 primase on poly(dT) with 100-600 ng of Mcm4/6/7: ~3 fold
[3]
  binding result: binds

B2: His-tagged p48 alone (human DNA primase p48 single subunit) (natural protein, UniProt P49642 1-420, looked up)
chain: T2 sequence 1
notes: DNA primase small subunit p48, human; End of the His tag is read from the printed name His-p48; also called His-p48; source: E. coli BL21 (DE3) RIL, purified as previously described [58]; not shown: His tag, N-terminal, kept
[4]
  binding result: binds

B3: 132-mer pyrimidine-rich oligonucleotide (ssDNA)
DNA: CCACACATGATTTGTTTGCTCCCTGAAATGATCTATATTTAATATATAATGTATATTCCCTCGGGATTTTTTATTTTGTGTTATTCCACGGCATGAAAAACAAAAAACATTCTTCTCATCCTTGGTCCCTCA
DNA primase p48/p58
  binding result: binds
Mcm4/6/7 complex
  binding result: binds
[5]
  binding result: binds
